Reference: patent US20240279281A1, “Peptide Inhibitors of Interleukin-23 Receptor” (Janssen Pharmaceutica NV, priority 2023, published 2024)
Starred links: 1 amine or outer side, 2 acyl side, 3 side chain; linkers in the order of their positions; H or OH if unused. Positions of bridges follow the written chain, without caps; N, C: chain ends. Non-standard residues stand in square brackets, D forms with d. No end group written: not given here. X1 = 3‑(7-(3-acetamidophenyl)-1H-indol-3-yl)‑2‑aminopropanoic acid, CC(=O)Nc1cccc(-c2cccc3c(CC(N[*:1])C(=O)[*:2])c[nH]c23)c1; X3 = 4‑(2-(4-(2-amino-2-carboxyethyl)phenoxy)ethyl)‑4‑methylmorpholin‑4‑ium, C[N+]1(CCOc2ccc(CC(N[*:1])C(=O)[*:2])cc2)CCOCC1; Trp(7-Me) = Cc1cccc2c(C[C@H](N)C(=O)O)c[nH]c12; d(hLys(Me3)) = C[N+](C)(C)CCCCC[C@@H](N)C(=O)O; 3Pal = N[C@@H](Cc1cccnc1)C(=O)O; Lipidated = not defined here; NMeK = CN[C@@H](CCCCN)C(=O)O; Pen = CC(C)(S)[C@H](N)C(=O)O; lipid = not defined here; Thp = NC1(C(=O)O)CCOCC1; Sar = CNCC(=O)O

T1: interleukin-23 receptor (IL-23R), Q5VWK5
T1 chain: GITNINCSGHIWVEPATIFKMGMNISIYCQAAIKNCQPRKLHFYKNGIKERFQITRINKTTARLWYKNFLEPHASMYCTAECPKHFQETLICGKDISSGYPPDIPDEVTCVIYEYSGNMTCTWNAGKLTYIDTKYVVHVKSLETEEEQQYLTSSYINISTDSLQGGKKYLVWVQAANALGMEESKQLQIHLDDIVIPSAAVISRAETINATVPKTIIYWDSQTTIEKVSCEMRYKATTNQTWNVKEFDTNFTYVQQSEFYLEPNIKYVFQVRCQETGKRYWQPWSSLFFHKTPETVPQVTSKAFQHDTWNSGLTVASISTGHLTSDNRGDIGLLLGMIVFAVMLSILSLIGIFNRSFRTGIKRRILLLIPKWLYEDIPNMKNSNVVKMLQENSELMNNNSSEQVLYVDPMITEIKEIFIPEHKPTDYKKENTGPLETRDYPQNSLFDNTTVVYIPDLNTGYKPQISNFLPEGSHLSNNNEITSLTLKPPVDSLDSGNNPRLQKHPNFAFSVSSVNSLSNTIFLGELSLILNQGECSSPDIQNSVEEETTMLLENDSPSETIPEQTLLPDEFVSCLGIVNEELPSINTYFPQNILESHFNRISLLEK


Molecular target: T1, interleukin-23 receptor (IL-23R), Q5VWK5
Experiment: cell-based or functional assay

Row | PBMC pSTAT3 IC50 | Binder
1 | < 1 nM | [Pen]NT[Trp(7-Me)]K(Ac)[Pen][2‑amino‑3‑(4-(2-aminoethoxy)phenyl)propanoic acid][2‑amino‑3‑(6-hydroxynaphthalen-2-yl)propanoic acid][Thp]K(Lipidated)N[3Pal][Sar] (disulfide 1-6 (inferred); ends not checked; also: K10 lipidated lysine, lipid not given here) [SEQ ID NO: 186]
2 | < 1 nM | [Pen]ET[Trp(7-Me)]K(Ac)[Pen][2‑amino‑3‑(4-(2-aminoethoxy)phenyl)propanoic acid][2‑amino‑3‑(6-hydroxynaphthalen-2-yl)propanoic acid][Thp]K(Ac)N[3Pal][Sar]K(lipid) (disulfide 1-6 (inferred); ends not checked; also: K14 lipidated, lipid not given here) [SEQ ID NO: 170]
3 | < 1 nM | [(R)‑3‑carboxy‑2‑(4-(((R)-5-carboxy-5-hydrazineylpentyl)amino)-4-oxobutanamido)‑N,N,N‑trimethylpropan‑1‑aminium][Pen]NT[Trp(7-Me)]K(Ac)[Pen][2‑amino‑3‑(4-(2-aminoethoxy)phenyl)propanoic acid][2‑amino‑3‑(6-hydroxynaphthalen-2-yl)propanoic acid][Thp]EN[3Pal][Sar]K(lipid) (disulfide 2-7 (inferred); ends not checked; also: K15: lipidated lysine, lipid not given here) [SEQ ID NO: 166]
4 | < 0.1 nM | [Pen]NT[X1]K(Ac)[Pen][2‑amino‑3‑(4-(2-aminoethoxy)phenyl)propanoic acid][2‑amino‑3‑(6-hydroxynaphthalen-2-yl)propanoic acid][Thp]KN[3Pal][Sar] (disulfide 1-6 (inferred); ends not checked; also: K10: lipidated lysine, lipid not given here) [SEQ ID NO: 153]
5 | < 1 nM | R[Pen]NT[X1]K(Ac)[Pen][2‑amino‑3‑(4-(2-aminoethoxy)phenyl)propanoic acid][2‑amino‑3‑(6-hydroxynaphthalen-2-yl)propanoic acid][Thp]EN[3Pal][Sar]K (disulfide 2-7 (inferred); ends not checked; also: K15: lipidated lysine, lipid not given here) [SEQ ID NO: 156]
6 | < 1 nM | R[Pen]KT[X1]K(Ac)[Pen][2‑amino‑3‑(4-(2-aminoethoxy)phenyl)propanoic acid][2‑amino‑3‑(6-hydroxynaphthalen-2-yl)propanoic acid][Thp]EN[3Pal][Sar] (disulfide 2-7 (inferred); ends not checked; also: Lys3: lipidated lysine, lipid not given here) [SEQ ID NO: 150]
7 | < 1 nM | R[Pen]NT[Trp(7-Me)]K(Ac)[Pen][2‑amino‑3‑(4-(2-aminoethoxy)phenyl)propanoic acid][2‑amino‑3‑(6-hydroxynaphthalen-2-yl)propanoic acid][Thp]EN[3Pal][NMeK] (disulfide 2-7 (inferred); not fully specified (residue 14); ends not checked; also: X14 lipidated N-methyl-lysine, lipid not given here) [SEQ ID NO: 190]
8 | < 1 nM | R[Pen]ET[Trp(7-Me)]K(Ac)[Pen][2‑amino‑3‑(4-(2-aminoethoxy)phenyl)propanoic acid][2‑amino‑3‑(6-hydroxynaphthalen-2-yl)propanoic acid][Thp]EN[3Pal][Sar]K (disulfide 2-7 (inferred); ends not checked; also: Lys15: lipidated lysine, lipid not given here) [SEQ ID NO: 147]
9 | < 1 nM | [d(hLys(Me3))][Pen]NT[Trp(7-Me)]K(Ac)[Pen][2‑amino‑3‑(4-(2-aminoethoxy)phenyl)propanoic acid][2‑amino‑3‑(6-hydroxynaphthalen-2-yl)propanoic acid][Thp]K(Lipidated)N[3Pal][Sar] (disulfide 2-7 (inferred); ends not checked; also: K11 lipidated lysine, lipid not given here) [SEQ ID NO: 184]
10 | < 1 nM | [Pen]ET[Trp(7-Me)]K(Ac)[Pen][2‑amino‑3‑(4-(2-aminoethoxy)phenyl)propanoic acid][2‑amino‑3‑(6-hydroxynaphthalen-2-yl)propanoic acid][Thp]K(Ac)N[3Pal][Sar]K(lipid) (disulfide 1-6 (inferred); ends not checked; also: K14 lipidated, lipid not given here) [SEQ ID NO: 169]
11 | < 1 nM | [d(hLys(Me3))][Pen]NT[Trp(7-Me)]K(Ac)[Pen][2‑amino‑3‑(4-(2-aminoethoxy)phenyl)propanoic acid][2‑amino‑3‑(6-hydroxynaphthalen-2-yl)propanoic acid][Thp]K(Ac)N[3Pal][Sar]K(lipid) (disulfide 2-7 (inferred); ends not checked; also: K15 lipidated lysine, lipid not given here) [SEQ ID NO: 181]
12 | < 1 nM | K(lipid)[Pen]NT[Trp(7-Me)]K(Ac)[Pen][2‑amino‑3‑(4-(2-aminoethoxy)phenyl)propanoic acid][2‑amino‑3‑(6-hydroxynaphthalen-2-yl)propanoic acid][Thp]K(Ac)N[3Pal][Sar] (disulfide 2-7 (inferred); ends not checked; also: K1: lipidated lysine, lipid not given here) [SEQ ID NO: 164]
13 | < 0.1 nM | R[Pen]ET[Trp(7-Me)]K(Ac)[Pen][2‑amino‑3‑(4-(2-aminoethoxy)phenyl)propanoic acid][2‑amino‑3‑(6-hydroxynaphthalen-2-yl)propanoic acid][Thp]EN[3Pal][Sar]K (disulfide 2-7 (inferred); ends not checked; also: Lys15: lipidated lysine, lipid not given here) [SEQ ID NO: 148]
14 | < 1 nM | R[Pen]NT[X1]K(Ac)[Pen][2‑amino‑3‑(4-(2-aminoethoxy)phenyl)propanoic acid][2‑amino‑3‑(6-hydroxynaphthalen-2-yl)propanoic acid][Thp]EN[3Pal][Sar] (disulfide 2-7 (inferred); ends not checked) [SEQ ID NO: 151]
15 | < 1 nM | [Pen]NT[Trp(7-Me)]K(Ac)[Pen][2‑amino‑3‑(4-(2-aminoethoxy)phenyl)propanoic acid][2‑amino‑3‑(6-hydroxynaphthalen-2-yl)propanoic acid][Thp]K(Lipidated)N[3Pal][Sar] (disulfide 1-6 (inferred); ends not checked; also: K10 lipidated lysine, lipid not given here) [SEQ ID NO: 185]
16 | < 1 nM | [Pen]NT[Trp(7-Me)]K(Ac)[Pen][2‑amino‑3‑(4-(2-aminoethoxy)phenyl)propanoic acid][2‑amino‑3‑(6-hydroxynaphthalen-2-yl)propanoic acid][Thp]K(Ac)N[3Pal][Sar]K(lipid) (disulfide 1-6 (inferred); ends not checked; also: K14 lipidated lysine, lipid not given here) [SEQ ID NO: 182]
17 | < 1 nM | R[Pen]NT[Trp(7-Me)]K(Ac)[Pen][2‑amino‑3‑(4-(2-aminoethoxy)phenyl)propanoic acid][2‑amino‑3‑(6-hydroxynaphthalen-2-yl)propanoic acid][Thp]EN[3Pal][Sar]K(Lipidated) (disulfide 2-7 (inferred); ends not checked; also: K15: lipidated lysine, lipid not given here) [SEQ ID NO: 191]
18 | > 1 nM | [Pen]NT[Trp(7-Me)]K(Ac)[Pen][2‑amino‑3‑(4-(2-aminoethoxy)phenyl)propanoic acid][2‑amino‑3‑(6-hydroxynaphthalen-2-yl)propanoic acid][Thp]K(Ac)N[3Pal][Sar]K(lipid) (disulfide 1-6 (inferred); ends not checked; also: K14: lipidated lysine, lipid not given here) [SEQ ID NO: 165]
19 | < 0.01 nM | R[Pen]NT[X1]K(Ac)[Pen][X3][2‑amino‑3‑(6-hydroxynaphthalen-2-yl)propanoic acid][Thp]EN[3Pal][Sar] (disulfide 2-7 (inferred); ends not checked) [SEQ ID NO: 161]
